Four proteins from PMC9604439, “Mutation Hotspot for Changing the Substrate Specificity of β-N-Acetylhexosaminidase: A Library of GlcNAcases” (International Journal of Molecular Sciences, 2022) can be followed below.

The chains are these.
B1: TfHex (β-N-acetylhexosaminidase from Talaromyces flavus) (Talaromyces flavus; E332A) (protein)
chain: VAVNPLPAPRSITWGTSGPISVPHNVDVKLPKNAIINDAWERAWTSIKQLRWVPQATEAPISSYEPFPTVAPTSASTASSTPLPSSSAAAVAARSQKRGHQKGSHEKRGHSQSTLRTVTVTVSDLNADLQAEVDESYTLVLDSGSSTLAITANTTWGALHAFTTLQQLVIYQDNSLIIEQPVHIEDSPLYPWRGVMIDTGRNFITVPKIKEQIDGMALSKLNILHWHLDDSQSWPVHMDTYPQMTNDAYSPWQTYSHEDIKDIIEYARARAVRVVPEVDMPGHSAAGWQQVDPSIVACAHSWWSNDNWPYHTAVAPTPGQLDPLNNKTYGVVEKVYNELSGIFTDDFFHVGGDELQTGCYNFSTYVSDYLAADPSRTYNDVTQYWVDHAFPIFKKIQNRKLVIWEDLIINNPHAPNVSTENLLVQSWNNGLTNINNLTNLGYDVLVSSSDFMYLDCGYGGFVTNDPRYDVMVNPDAVDGLANFNWGGNGGSWCAPYKTWQRIYDYDFTTNLTDAQAAHVKGAVAPLWSEQVDDTVISGKMWPRAAALAELVWSGNKDPKTGDKRTTYMTQRILNFREYLVANGVQAAPLVPKYCLQHPHSCDLYYDQTAVV
notes: secreted via alpha-factor, pPICZαA, Pichia pastoris KM71H, cation-exchange purified; tetramer of two catalytic subunits and two non-covalently linked propeptides
B2: TfHex (β-N-acetylhexosaminidase from Talaromyces flavus) (Talaromyces flavus; E332G) (protein)
chain: VAVNPLPAPRSITWGTSGPISVPHNVDVKLPKNAIINDAWERAWTSIKQLRWVPQATEAPISSYEPFPTVAPTSASTASSTPLPSSSAAAVAARSQKRGHQKGSHEKRGHSQSTLRTVTVTVSDLNADLQAEVDESYTLVLDSGSSTLAITANTTWGALHAFTTLQQLVIYQDNSLIIEQPVHIEDSPLYPWRGVMIDTGRNFITVPKIKEQIDGMALSKLNILHWHLDDSQSWPVHMDTYPQMTNDAYSPWQTYSHEDIKDIIEYARARAVRVVPEVDMPGHSAAGWQQVDPSIVACAHSWWSNDNWPYHTAVGPTPGQLDPLNNKTYGVVEKVYNELSGIFTDDFFHVGGDELQTGCYNFSTYVSDYLAADPSRTYNDVTQYWVDHAFPIFKKIQNRKLVIWEDLIINNPHAPNVSTENLLVQSWNNGLTNINNLTNLGYDVLVSSSDFMYLDCGYGGFVTNDPRYDVMVNPDAVDGLANFNWGGNGGSWCAPYKTWQRIYDYDFTTNLTDAQAAHVKGAVAPLWSEQVDDTVISGKMWPRAAALAELVWSGNKDPKTGDKRTTYMTQRILNFREYLVANGVQAAPLVPKYCLQHPHSCDLYYDQTAVV
notes: as for B1
B3: TfHex (β-N-acetylhexosaminidase from Talaromyces flavus) (Talaromyces flavus; E332T) (protein)
chain: VAVNPLPAPRSITWGTSGPISVPHNVDVKLPKNAIINDAWERAWTSIKQLRWVPQATEAPISSYEPFPTVAPTSASTASSTPLPSSSAAAVAARSQKRGHQKGSHEKRGHSQSTLRTVTVTVSDLNADLQAEVDESYTLVLDSGSSTLAITANTTWGALHAFTTLQQLVIYQDNSLIIEQPVHIEDSPLYPWRGVMIDTGRNFITVPKIKEQIDGMALSKLNILHWHLDDSQSWPVHMDTYPQMTNDAYSPWQTYSHEDIKDIIEYARARAVRVVPEVDMPGHSAAGWQQVDPSIVACAHSWWSNDNWPYHTAVTPTPGQLDPLNNKTYGVVEKVYNELSGIFTDDFFHVGGDELQTGCYNFSTYVSDYLAADPSRTYNDVTQYWVDHAFPIFKKIQNRKLVIWEDLIINNPHAPNVSTENLLVQSWNNGLTNINNLTNLGYDVLVSSSDFMYLDCGYGGFVTNDPRYDVMVNPDAVDGLANFNWGGNGGSWCAPYKTWQRIYDYDFTTNLTDAQAAHVKGAVAPLWSEQVDDTVISGKMWPRAAALAELVWSGNKDPKTGDKRTTYMTQRILNFREYLVANGVQAAPLVPKYCLQHPHSCDLYYDQTAVV
notes: as for B1
B4: TfHex (β-N-acetylhexosaminidase from Talaromyces flavus) (Talaromyces flavus; E332N) (protein)
chain: VAVNPLPAPRSITWGTSGPISVPHNVDVKLPKNAIINDAWERAWTSIKQLRWVPQATEAPISSYEPFPTVAPTSASTASSTPLPSSSAAAVAARSQKRGHQKGSHEKRGHSQSTLRTVTVTVSDLNADLQAEVDESYTLVLDSGSSTLAITANTTWGALHAFTTLQQLVIYQDNSLIIEQPVHIEDSPLYPWRGVMIDTGRNFITVPKIKEQIDGMALSKLNILHWHLDDSQSWPVHMDTYPQMTNDAYSPWQTYSHEDIKDIIEYARARAVRVVPEVDMPGHSAAGWQQVDPSIVACAHSWWSNDNWPYHTAVNPTPGQLDPLNNKTYGVVEKVYNELSGIFTDDFFHVGGDELQTGCYNFSTYVSDYLAADPSRTYNDVTQYWVDHAFPIFKKIQNRKLVIWEDLIINNPHAPNVSTENLLVQSWNNGLTNINNLTNLGYDVLVSSSDFMYLDCGYGGFVTNDPRYDVMVNPDAVDGLANFNWGGNGGSWCAPYKTWQRIYDYDFTTNLTDAQAAHVKGAVAPLWSEQVDDTVISGKMWPRAAALAELVWSGNKDPKTGDKRTTYMTQRILNFREYLVANGVQAAPLVPKYCLQHPHSCDLYYDQTAVV
notes: as for B1

Substrate in this data set: CC(=O)N[C@H]1[C@H](Oc2ccc([N+](=O)[O-])cc2)O[C@H](CO)[C@@H](O)[C@@H]1O
The data set can be described thus: discontinuous p-nitrophenolate release assay, non-linear regression. It counts as biochemical, Talaromyces flavus. As to conditions: McIlvaine buffer pH 5.0, 25 °C.
The term Km denotes the substrate concentration at which the rate is half of its maximum. In general, kcat refers to the maximal rate divided by the concentration of active sites. In the case of B1, the Km came out at 880 ± 70 µM and the kcat worked out at 30 ± 1 s⁻¹.

With B2, the Michaelis-Menten constant (Km) worked out at 1800 ± 200 µM and the turnover number (kcat) was 51 ± 2 s⁻¹.

Consider B3, for which the Michaelis-Menten constant (Km) was found to be 800 ± 100 µM and the kcat was 13.3 ± 0.4 s⁻¹.

With B4, the Michaelis-Menten constant (Km) is 1220 ± 70 µM and the kcat is 22.5 ± 0.4 s⁻¹.
